US10029000B2, “Uses of IL-12 in hematopoiesis” (University of Southern California, priority 2003, dated 2018)
Entries after “also recorded” stand apart in the source; their conditions may differ.

Tests used:
[1] = test system: short-term hematopoietic stem cells (ST-HSCs); test: Colony forming units spleen day 12 assay (CFU-S12); type: in vivo, mice
Experimental: To determine the bone marrow cell subsets that are protected by IL-12 administration for the rescue phenomena, CFC and CFU-S12 assay were performed at different time post lethal dose radiation. Bone marrow cells were recovered from IL-12 treated or control animals immediately (day 0), or at day 7, 9, 10, 12, 14 and 21 post radiation for CFC and CFU-S12 assay. If progenitor cells are protected from IL-12 treatment (IL-12 was administered in this study at 24 hours before radiation), CFC and CFU-S12 colonies should be detected when cells were removed at day 0. However, bone marrow cells isolated at day 0, 7 post radiation give rise no CFC nor CFU-S12 colonies in both IL-12 treated and control animals. At day 10 post radiation, the bone marrow cells isolated from IL-12 treated mice start to give rise of CFU-S12 but no detectable CFC, which start to appear from IL-112 treated bone marrow isolated 12 days post radiation and fully recovered from bone marrow cells isolated 14 days post radiation, as shown in FIGS. 5A and 5B. […] The CFU-S12 colony forming cells and CFC cells at day 10 and day 14 post radiation may be derived from long-term repopulating stem cells rescued by IL-12 treatment. […]
For the CFU-spleen12 assay, 2×10^5 bone marrow cells as donors were transplanted into recipient mice which received lethal irradiation. […] Spleen colonies were counted.

bone marrow = test: Bone marrow histology (H&E) after lethal dose radiation; type: in vivo, mice; details: 5 ug/kg
Experimental: At different time post IL-12 treatment (5 ug/kg) and lethal dose radiation (1, 12 and 14 days), femurs were isolated, fixed in 10% formalin, decalcified and processed for paraffin section and for Hematoxylin & Eosin staining. FIG. 2A: 1 day post radiation; FIG. 2B: 12 days post radiation; FIG. 2C: 14 days post radiation. […] (200× magnification)
(§1) To determine if IL-112 sensitizes intestinal tract to ionizing radiation, two different doses of IL-12 and radiation were used in radioprotection assay, namely 5 ug/kg and 50 ug/kg of IL-12 and two different doses of radiation were also used. Subsequent to the administration of IL-12 and radiation, both bone marrow and the small intestine were removed from mice who received either 5 ug/kg or 50 ug/kg of IL-12 and a lethal dose radiation for histology study. The lethal doses were either 1000 rad or 1600 rad.
(§2) Mice were treated with IL-12 (100 ng/mouse) or PBS 24 hours before receiving lethal irradiation. At different days after lethal irradiation, femurs, spleens and small intestines were removed and fixed in 10% formalin buffer for 24 hours. Subsequently, bone marrow was decalcified in Rapid Decalcifier for about 30 minutes. Samples and tissues then were embedded in TissuePrep 2 paraffin wax for micro-section at 5 μm for routine Hematoxylin and Eosin staining. Some small intestines were treated with PAS (Periodic Acid Schiff) staining.

bone marrow cells [2] = test: BrdU incorporation assay; type: in vivo, mice; details: 24 hours post IL-12 administration (10 ng/mouse); control 8%
Experimental: (§3) It is believed that cells at S phase are more resistant to radiation. Both Brd-U incoperation and cell cycling analysis were performed to determine if IL-12 can stimulate bone marrow cell proliferation. In IL-12 treated mice, there are more bone marrow cells in S phase compared with control animals (12% vs 10%, p<0.05). Furthermore, there are more BrdU positive cells in IL-12 treated bone marrow compared with control animals (17% vs 8%, p<0.05).
(§4) 24 hours post IL-12 administration (10 ng/mouse), bone marrow cells were isolated for BrdU incooperation assay (FIG. 7A).
For the BrdU assay, IL-12 (10 ng/mouse) or PBS was intravenously injected into mice. 21 hours after injection, mice were i.p. injected with 5-Bromo-2′-deoxyuridine (BrdU from Sigma) at 50 mg/kg dosage. 3 hours after BrdU injection, mice were sacrificed and whole bone marrow cells were isolated from femurs and treated with lysis buffer to destroy red blood cells. Bone marrow cells were dispersed on a slide by cytospin for the proliferation assay using BrdU immunohistochemistry system kit purchased from Oncogene Research Products (Boston, Mass.)

peripheral blood cells = test: Peripheral blood cell counts after lethal or sublethal irradiation; type: in vivo, mice (C57BL/6J)
Source text: After lethal dose radiation (10 Gy), the full blood cell count dropped to lowest point for both IL-12 treated and non-treated mice. However, 11-12 treated mice start to recover at day 14 post radiation while the control animals died out. It is noteworthy that the recovery is multi-lineage, including white blood cell, red blood cell and platelets.
Here too, the recovery is broad range and encompasses all blood lineages and blood cell types. […] This effect is somewhat better when IL-12 was administrated 24 hours before radiation than IL-12 administrated after radiation.
For peripheral blood cell counts, 6-8 week old female C57BL/6J mice received an i.v. injection of IL-12 before or after lethal (1000 rad) or sub-lethal (500 rad) irradiation. 10 ul blood was taken from the tail to do blood cell count analyses in a MASCOT Multispecies Hematology Systems (CDC Technologies, Oxford, Conn.) at different days after irradiation. Each group had at least 3 mice.

bone marrow cells [3] = test: Cell cycle analysis with propidium iodide staining; type: in vivo, mice; details: 24 hours post IL-12 administration; control 10%, p<0.05
Experimental: as §3, §4
For the cell cycling assay, IL-12 (100 ng/mouse) or PBS was intravenously injected into mice. 24 hours after injection, whole bone marrow cells were flushed from femurs and treated with lysis buffer to destroy red blood cells. After washing in PBS and fixing in −20° C. pure ethanol for at least 1 hour, about 5×10^5 bone marrow cells were treated with RNase A (20 ng/ul final concentration) at 37° C. for 30 minutes, then stained with propidium iodide (100 ng/ul final concentration) from Sigma (St Louis, Mo.) at room temperature for 15 to 30 minutes and then processed directly for cell cycling analysis using fluorescence activated cell sorting (FACS).

small intestine = test: Small intestine histology after lethal dose radiation; type: in vivo, mice; details: 5 ug/kg, 1000 rad or 1600 rad (10 and 16 Gy), 4 days post radiation
Experimental: 4 days post radiation, small intestine were removed, fixed for PAS staining for mice received 10 Gy (Periodic Acid Schiff), H&E staining for mice received 16 Gy. […] There is no obvious histological damage in mice who received 10 Gy radiation. (200× magnification)
as §1, §2

B1: IL-12: Recombinant murine interleukin 12, heterodimeric cytokine (p35+p40), purchased from R&D Systems or PeproTech (protein, UniProt P43431 23-215; P43432 23-335, looked up)
Interleukin-12 subunit alpha: RVIPVSGPARCLSQSRNLLKTTDDMVKTAREKLKHYSCTAEDIDHEDITRDQTSTLKTCLPLELHKNESCLATRETSSTTRGSCLPPQKTSLMMTLCLGSIYEDLKMYQTEFQAINAALQNHNHQQIILDKGMLVAIDELMQSLNHNGETLRQKPPVGEADPYRVKMKLCILLHAFSTRVVTINRVMGYLSSA
Interleukin-12 subunit beta: MWELEKDVYVVEVDWTPDAPGETVNLTCDTPEEDDITWTSDQRHGVIGSGKTLTITVKEFLDAGQYTCHKGGETLSHSHLLLHKKENGIWSTEILKNFKNKTFLKCEAPNYSGRFTCSWLVQRNMDLKFNIKSSSSSPDSRAVTCGMASLSAEKVTLDQRDYEKYSVSCQEDVTCPTAEETLPIELALEARQQNKYENYSTSFFIRDIIKPDPPKNLQMKPLKNSQVEVSWEYPDSWSTPHSYFSLKFFVRIQRKKEKMKETEEGCNQKGAFLVEKTSTEVQCKGGNVCVQAQDRYYNSSCSKWACVPCRVRS
**Q.** Which CFU-S12 activity ([1]; cells isolated the first 7 days post lethal radiation) does the source give for B1 here?
**A.** did not give rise of CFU-S12

**Q.** And the “time of full recovered CFU-S12 activity” value ([1]; lethal radiation, IL-12 24 hours before radiation)?
**A.** 10 days post radiation

**Q.** And the “bone marrow cellularity versus control” value (bone marrow; day 1 post lethal radiation)?
**A.** significant higher cellularity

**Q.** And the “bone marrow histological structure versus control” value (bone marrow; day 7 and day 10 post radiation)?
**A.** no significant difference

**Q.** What about the bone marrow colonies (bone marrow; day 12 post radiation) of the same molecule?
**A.** colonies were observed

**Q.** What about the bone marrow recovery (bone marrow; day 14 post radiation) of the same molecule?
**A.** full recovery of bone marrow cellularity; also recorded: significant regeneration

**Q.** And the “BrdU positive cells in bone marrow” value (bone marrow cells [2])?
**A.** 17%

**Q.** And the “time to reach normal blood cell count” value (peripheral blood cells; lethal dose radiation (10 Gy))?
**A.** about 30 days post radiation

**Q.** What about the “day at which blood cell counts start to recover” value (peripheral blood cells; lethal dose radiation (10 Gy), 100 ng/mouse) of the same molecule?
**A.** ≤ 14 day post radiation

**Q.** What about the “day at which blood cell counts start to recover” value (peripheral blood cells; lethal dose radiation (10 Gy), 100 ng/mouse, listed as 11-12) of the same molecule?
**A.** 14 day post radiation

**Q.** What about the “blood cell count recovery versus control” value (peripheral blood cells; sublethal radiation (500 rad), 100 ng/mouse) of the same molecule?
**A.** accelerates the blood cell count recovery

**Q.** And the “red blood cell, platelet, white blood cell and monocyte versus control” value (peripheral blood cells; sublethal radiation (500 rad), day 5 and 8 post radiation, p<0.05)?
**A.** statistically higher

**Q.** What about the “bone marrow cells in S phase” value (bone marrow cells [3]) of the same molecule?
**A.** 12%

**Q.** And the “small intestine histology versus control” value (small intestine)?
**A.** no significant histological difference
